Assays:
human TLR4 = biological target: T1, human TLR4 (human, UniProt O00206 24-839); test: HEK-hTLR4 cells, IL-8 ELISA; binding inferred from activation
T1 construct: whole, on cells; also called hTLR4; Toll-like receptor 4

human TLR2 = biological target: T2, human TLR2 (human, UniProt O60603 21-784); test: HEK-Blue hTLR2 cells, NF-κB/AP1 reporter and IL-8 ELISA; binding inferred from activation
T2 construct: whole, on cells; Expressed on the HEK-Blue hTLR2 reporter cell line; also called hTLR2; Toll-like receptor 2
T2 sequence (O60603 21-784): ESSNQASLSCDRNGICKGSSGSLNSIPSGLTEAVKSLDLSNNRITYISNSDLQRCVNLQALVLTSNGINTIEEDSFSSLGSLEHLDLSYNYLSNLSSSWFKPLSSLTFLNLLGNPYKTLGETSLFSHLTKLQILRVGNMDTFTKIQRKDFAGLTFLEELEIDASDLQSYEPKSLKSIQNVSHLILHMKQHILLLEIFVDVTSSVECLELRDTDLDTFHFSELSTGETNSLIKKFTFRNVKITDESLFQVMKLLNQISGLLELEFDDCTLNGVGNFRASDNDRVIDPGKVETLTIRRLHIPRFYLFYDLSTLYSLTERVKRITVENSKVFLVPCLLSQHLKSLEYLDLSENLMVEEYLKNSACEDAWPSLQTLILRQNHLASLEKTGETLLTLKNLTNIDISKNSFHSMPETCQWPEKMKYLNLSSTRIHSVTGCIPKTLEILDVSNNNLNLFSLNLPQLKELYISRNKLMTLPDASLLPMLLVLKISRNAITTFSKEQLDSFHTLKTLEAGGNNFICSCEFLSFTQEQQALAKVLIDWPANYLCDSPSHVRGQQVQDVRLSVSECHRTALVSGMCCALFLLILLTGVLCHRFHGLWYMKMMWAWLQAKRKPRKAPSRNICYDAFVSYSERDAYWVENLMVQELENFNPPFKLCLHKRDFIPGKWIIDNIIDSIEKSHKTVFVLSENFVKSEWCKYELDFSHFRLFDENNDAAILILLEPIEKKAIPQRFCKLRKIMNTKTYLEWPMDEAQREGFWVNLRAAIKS

T1 sequence (O00206 24-839): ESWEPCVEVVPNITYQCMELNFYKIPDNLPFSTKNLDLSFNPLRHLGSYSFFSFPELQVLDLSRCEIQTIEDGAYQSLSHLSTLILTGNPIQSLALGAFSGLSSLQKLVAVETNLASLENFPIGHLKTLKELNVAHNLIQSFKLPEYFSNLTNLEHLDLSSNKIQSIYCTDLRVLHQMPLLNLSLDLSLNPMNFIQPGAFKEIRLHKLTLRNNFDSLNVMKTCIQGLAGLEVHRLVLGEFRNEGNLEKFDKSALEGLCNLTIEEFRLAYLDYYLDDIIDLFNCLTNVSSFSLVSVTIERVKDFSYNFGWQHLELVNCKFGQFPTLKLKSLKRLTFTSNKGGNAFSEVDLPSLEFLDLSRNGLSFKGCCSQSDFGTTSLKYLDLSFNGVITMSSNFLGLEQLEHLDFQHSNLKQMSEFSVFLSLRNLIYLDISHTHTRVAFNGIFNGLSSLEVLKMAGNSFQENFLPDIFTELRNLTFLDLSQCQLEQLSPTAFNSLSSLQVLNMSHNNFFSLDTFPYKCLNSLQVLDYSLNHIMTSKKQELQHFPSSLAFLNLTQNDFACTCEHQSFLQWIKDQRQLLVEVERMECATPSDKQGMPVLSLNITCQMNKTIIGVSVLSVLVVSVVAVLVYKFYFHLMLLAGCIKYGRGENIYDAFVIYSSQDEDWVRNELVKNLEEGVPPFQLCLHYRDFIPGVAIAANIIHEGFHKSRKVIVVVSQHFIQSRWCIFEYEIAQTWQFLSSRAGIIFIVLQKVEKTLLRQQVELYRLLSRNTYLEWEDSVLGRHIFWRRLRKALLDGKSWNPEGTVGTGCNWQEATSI

B1: EDAZ13Mad5 (other)
chain: MHHHHHHNIDRPKGLAFTDVDVDSIKIAWESPQGQVSRYRVTYSSPEDGIRELFPAPDGEDDTAELQGLRPGSEYTVSVVALHDDMESQPLIGIQSTKRYKNRVASRKSRAKFKQLLQHYREVAAAKSSENDRLRLLLKESLKISQAVHAAHAEINEAGREVVGVGALKVPRNQDWLGVPRFAKFASFEAQGALANIAVDKANLDVEQLESIINFEKLTEWTGS
notes: Recombinant fusion protein; 25057 Da; also called fusion protein of TLR4 peptide agonist EDA, cell-penetrating peptide Z13 and MAD5 cargo
- binding result (human TLR4): binds

B2: Z13Mad5Anaxa (other)
chain: MHHHHHHKRYKNRVASRKSRAKFKQLLQHYREVAAAKSSENDRLRLLLKESLKISQAVHAAHAEINEAGREVVGVGALKVPRNQDWLGVPRFAKFASFEAQGALANIAVDKANLDVEQLESIINFEKLTEWTGSSTVHEILCKLSLEGDHSTPPSAYGSVKPYTNFDAE
notes: Recombinant fusion protein; 18973 Da; also called fusion protein of cell-penetrating peptide Z13, MAD5 cargo and TLR peptide agonist Anaxa (C-terminal)
- binding result (human TLR2): binds
- binding result (human TLR4): binds

B3: AnaxaZ13Mad5 (other)
chain: MHHHHHHSTVHEILCKLSLEGDHSTPPSAYGSVKPYTNFDAEKRYKNRVASRKSRAKFKQLLQHYREVAAAKSSENDRLRLLLKESLKISQAVHAAHAEINEAGREVVGVGALKVPRNQDWLGVPRFAKFASFEAQGALANIAVDKANLDVEQLESIINFEKLTEWTGS
notes: Recombinant fusion protein; 18973 Da; also called AnaxZ13Mad5
- binding result (human TLR2): binds
